What was measured:
[1] = molecular target: component of tight junctions expressed by L-cells; experiment: flow cytometry on L cells, 20 µg Arah2-pσ1, detected with anti-pσ1 rabbit serum and FITC-labeled anti-rabbit
Arah2-pσ1 fusion protein [2] = experiment: flow cytometry; control serum in place of anti-pσ1 serum on HeLa cells stained with Arah2-pσ1, FITC-labeled anti-rabbit
Arah2-pσ1 fusion protein [3] = experiment: flow cytometry; control serum in place of anti-pσ1 serum on L cells stained with Arah2-pσ1, FITC-labeled anti-rabbit

Row | Substance | MFI [1] | MFI (Arah2-pσ1 fusion protein [2]) | MFI (Arah2-pσ1 fusion protein [3])
1 | Arah2-pσ1 fusion protein | 1880 MFI | – | –
2 | normal rabbit serum | – | 26 MFI | 32 MFI
